In paper PMC10384591, “Multi-Enzymatic Cascade for Efficient Deracemization of DL-Pantolactone into D-Pantolactone” (Molecules, 2023):

Experiments:
NasLPLDH = molecular target: T1, NasLPLDH (Nocardia asteroides, UniProt U5EKS1); experiment: substrate specificity, dehydrogenation by recombinant enzyme; format: cell-based; settings: recombinant E. coli BL21(DE3); FMN-dependent
T1 construct: gene NCAST_32_01610; pET28a, codon-optimized synthetic gene, E. coli BL21(DE3)
T1 sequence (U5EKS1 1-404): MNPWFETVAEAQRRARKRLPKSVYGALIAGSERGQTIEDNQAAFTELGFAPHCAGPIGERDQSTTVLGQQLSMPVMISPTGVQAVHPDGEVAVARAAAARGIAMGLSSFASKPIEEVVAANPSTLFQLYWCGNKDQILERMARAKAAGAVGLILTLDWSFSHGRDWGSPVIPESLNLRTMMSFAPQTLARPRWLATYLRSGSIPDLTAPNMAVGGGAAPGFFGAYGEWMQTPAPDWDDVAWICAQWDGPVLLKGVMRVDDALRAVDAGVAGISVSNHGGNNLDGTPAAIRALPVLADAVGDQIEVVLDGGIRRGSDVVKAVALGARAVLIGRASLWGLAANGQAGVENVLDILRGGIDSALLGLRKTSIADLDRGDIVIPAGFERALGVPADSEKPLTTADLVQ

CduCPR = molecular target: T2, CduCPR (Candida dubliniensis, UniProt B9WJQ5); experiment: whole-cell reduction to D-pantolactone; format: cell-based; settings: E. coli cells co-expressing EsGDH
T2 construct: gene CPR-C2; pACYCDuet-1, co-expressed with EsGDH in E. coli BL21(DE3) cells
T2 sequence (B9WJQ5 1-309): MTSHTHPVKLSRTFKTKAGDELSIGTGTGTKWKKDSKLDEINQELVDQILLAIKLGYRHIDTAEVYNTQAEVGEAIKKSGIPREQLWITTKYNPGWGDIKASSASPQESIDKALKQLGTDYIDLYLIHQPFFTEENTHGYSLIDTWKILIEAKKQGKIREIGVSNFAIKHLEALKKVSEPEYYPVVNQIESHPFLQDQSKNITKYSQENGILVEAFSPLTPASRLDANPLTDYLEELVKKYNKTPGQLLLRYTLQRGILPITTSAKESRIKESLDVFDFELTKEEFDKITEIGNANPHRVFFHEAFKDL

ZpaCPR = system: T3, ZpaCPR; experiment: NADPH oxidation, absorbance […] nm, Michaelis-Menten fit; format: biochemical, Zygosaccharomyces parabailii; settings: 0.15 mM NADPH, 200 mM PBS pH 5.5, 45 °C
T3 construct: gene CPR; pET28a, codon-optimized synthetic gene, E. coli BL21(DE3), Ni-NTA purified

purified protein = substrate: CC1(C)COC(=O)[C@H]1O; experiment: purified protein; format: biochemical, Amycolatopsis methanolica; settings: 0.15 mM FMN, 200 mM PBS pH 8.0, 30 °C

## CC1(C)COC(=O)[C@H]1O [L-pantolactone]
NasLPLDH
  substrate specificity, dehydrogenation by recombinant enzyme: all five LPLDHs showed the capacity to catalyze the dehydrogenation of L-pantolactone but not D-pantolactone

## CC1(C)COC(=O)C1=O [ketopantolactone]
CduCPR
  whole-cell reduction to D-pantolactone: used to catalyze the reduction of ketopantolactone, affording the single D-enantiomer
ZpaCPR
  Km: 3.65 ± 0.58 mM

B1: AmeLPLDH (Amycolatopsis methanolica 239) (protein)
chain: MSNGWFETVAEAQRRARKRLPKSVYGALVAGSERGITVDDNIAAFAELGFAPHVAGLSDKRELGTTVMGQPISLPVVISPTGVQAVHPDGEVAVARAAAARGTAMGLSSFASKSIEEVAAANPQTFFQMYWVGSRDVLVQRMERARAAGAVGLIMTLDWSFSTGRDWGSPVIPEKLDLKAMARFAPEGITRPKWLWDFAKTRKLPDLTTPNLTPPGGTAPTFFGAYGEWMQTPLPTWEDVAWLREQWGGPFMLKGVMRVDDAKRAVDAGVTAISVSNHGGNNLDGTPAPIRALPAIADAVGGDVEVLLDGGIRRGSDVVKAIALGAKAVLIGRAYLWGLAANGQAGVENVLDILRGGIDSAVLGLGKTSIHELTRDDVVIPPGFERALGVPKS
notes: pET28a, codon-optimized synthetic gene, E. coli BL21(DE3), Ni-NTA purified, Brij 35 solubilised
Purified protein
  Km: 0.57 ± 0.04 mM
  Vmax: 52.5 µmol/min/mg
  kcat: 36.41 ± 0.29 s⁻¹
  kcat/Km: 63850 ± 510 M⁻¹ s⁻¹
